Residue numbers refer to the chain shown, from its start.
T1: human GITR protein (form not stated) (human, UniProt Q9Y5U5 26-161, limits assumed)
T1 construct: also called hGITR
T1 sequence (looked up): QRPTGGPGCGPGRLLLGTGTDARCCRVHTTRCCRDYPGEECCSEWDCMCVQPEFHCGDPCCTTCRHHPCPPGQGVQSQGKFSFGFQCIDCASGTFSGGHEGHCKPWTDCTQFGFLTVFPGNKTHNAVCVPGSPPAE

T2: human GITR expressed on cells (human, UniProt Q9Y5U5 26-241)
T2 construct: whole, on cells; Used for HEK293 transfectants and for PHA-stimulated human PBMCs; also called hGITR; cell surface hGITR
T2 sequence (looked up): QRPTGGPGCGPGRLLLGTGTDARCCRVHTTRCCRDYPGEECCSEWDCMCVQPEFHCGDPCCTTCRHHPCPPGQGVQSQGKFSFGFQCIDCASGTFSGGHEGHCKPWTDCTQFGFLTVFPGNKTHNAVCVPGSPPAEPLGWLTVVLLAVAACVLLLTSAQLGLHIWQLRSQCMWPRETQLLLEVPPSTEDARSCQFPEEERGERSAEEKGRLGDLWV

T3: human GITR-Fc fusion protein (human, UniProt Q9Y5U5 26-162)
T3 construct: extracellular domain; also called hGITR-Fc; recombinant human GITR-Fc; not shown: Fc part
T3 sequence (looked up): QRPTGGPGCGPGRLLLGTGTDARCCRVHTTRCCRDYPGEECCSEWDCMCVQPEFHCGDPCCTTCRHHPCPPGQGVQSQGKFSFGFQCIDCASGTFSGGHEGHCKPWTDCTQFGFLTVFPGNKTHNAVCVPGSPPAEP

B1: humanized anti-GITR antibody 2155 variant HC4-LC3 (antibody, V domains shown)
VH: EVQLVESGGGLIQPGGSLKLSCAASGFTISSYAMSWVRQAPGKGLEWVAIISTGGSTYYADSVKGRFTISRDNSKNTLYLQMNSLRAEDTAVYYCARVGGYYDSMDHWGQGTSVT
VL: DIVLTQSPASLAVSPGQRATITCRASETVDNYGISFMNWFQQKPGQPPKLLIYAASNQGSGVPARFSGSGSGTDFTLTINPVEADDTANYYCQQSKEVPWTFGQGTKVE
notes: also called LC3 and HC4
B2: chimeric 2155 antibody (antibody, V domains shown)
VH: EVKLVESGGGLVKPGGSLKLSCGASGFTISSYAMSWVRQSPEKRLEWVAIISTGGSTYYPDSVRGRFTISRDNARNSLYLQMSSLRSEDTAMYYCARVGGYYDSMDHWGQGTSVTVSS
VL: not shown
B3: humanized anti-GITR antibody 2155 variant HC2-LC1 (antibody, V domains shown)
VH: QVTLVESGGGLVKPGGSLTLSCGASGFTISSYAMSWVRQSPGKALEWVAIISTGGSTYYPDSVRGRFTISRDNAKNSLYLTMSSLDSVDTATYYCARVGGYYDSMDHWGQGTSVT
VL: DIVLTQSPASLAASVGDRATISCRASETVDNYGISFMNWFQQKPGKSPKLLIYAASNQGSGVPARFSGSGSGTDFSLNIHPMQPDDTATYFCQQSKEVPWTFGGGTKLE
notes: also called LC1 and HC2
B4: humanized anti-GITR antibody 2155 variant HC3a-LC2a (antibody, V domains shown)
VH: B3 VH with S62K, V63F, D86R, V88E
VL: DIVLTQSPASLSASVGDRATISCRASETVDNYGISFMNWFQQKPGQSPKLLIYAASNQGSGVPARFSGSGSGTDFSLTISPMQPDDTATYYCQQSKEVPWTFGGGTKLE
notes: also called LC2a and HC3a
B5: humanized anti-GITR antibody 2155 variant HC3b-LC2a (antibody, V domains shown)
VH: B3 VH with V5K, S62K, V63F, D86R, V88E
VL: B4 VL
notes: also called LC2a and HC3b
B6: humanized anti-GITR antibody 2155 variant HC1-LC1 (antibody, V domains shown)
VH: B3 VH with T92M
VL: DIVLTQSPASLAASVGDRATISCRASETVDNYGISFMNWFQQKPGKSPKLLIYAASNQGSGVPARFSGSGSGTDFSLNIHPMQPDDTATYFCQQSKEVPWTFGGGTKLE
notes: also called LC1 and HC1
B7: anti-GITR antibody clone 706 (antibody, V domains shown)
VH: EVQLQQSGTVLARPGASVKMSCEASGYSFTTYWMHWIKQRPGQGLEWIGAIYPGNSDTGYNQKFKGKAKLTAVTSASTAYMELSSLTNEDSAVYYCTRTSTYPHFDYWGQGTTLTVSS
VL: DILLTQSPAILSVSPGERVSFSCRASQSIGTSIHWYQQRTNGSPRLLIKYASESISGIPSRFSGSGSGTDFTLNINSVESEDIADYYCQQTNNWPLTFGAGTKLELK
notes: Murine hybridoma antibody; also called 706-GITR2; 706 GITR-2
B8: anti-GITR antibody clone 698 (antibody, V domains shown)
VH: B7 VH with S77T, N88D
VL: B7 VL with T91S
notes: Murine hybridoma antibody; also called 698-GITR2; 698 GITR-2
B9: anti-GITR antibody clone 1649 (antibody, V domains shown)
VH: B7 VH with R13G, A16T, M34I, T58A, T99S
VL: B7 VL with G42D
notes: Murine hybridoma antibody; also called 1649-GITR2; 1649 GITR-2
B10: anti-GITR antibody clone 827 (antibody, V domains shown)
VH: B7 VH with A24T, M34I, G49A, A50T, T58A, K65R, T99S
VL: B7 VL with G42D
notes: Murine hybridoma antibody; also called 827-GITR2; 827 GITR-2

Target: T1, human GITR protein (form not stated)
Assay: ELISA, GITR protein coated
Experimental: Ninety-six well plates were coated with GITR protein at 0.25 μg/well at 4° C., overnight. Wells were washed with washing buffer (PBS pH 7.4+0.05 Tween 20) and blocked with 200 μL of blocking buffer (PBS pH 7.4+0.05% Tween 20+1% BSA) for 1 hour at room temperature. […] The plate was incubated at room temperature for 1 h and washed five times with PBS-T. Then, 100 μL of a 1:50 000 dilution of peroxidase-conjugated goat anti-human IgG-Fc (Sigma)) was added to each well. Following incubation at room temperature for 1 h in the dark, the plate was washed with PBS-T, five times. Antibody binding was visualized by adding 100 μL/well of TMB-H₂O₂ substrate buffer (Interchim) The reaction proceeded at room temperature for 10 min and was read using an ELISA plate reader at a wavelength of 450 nm.

| Binder | EC50 [nM] |
| --- | --- |
| B1 | 1.08 |
| B2 | 0.97 |
| B3 | 1.34 |
| B4 | 2.17 |
| B5 | 1.24 |
| B6 | 0.91 |

Target: T4, cynomolgus monkey GITR-Fc (cynomolgus monkey)
T4 construct: extracellular domain; also called cGITR-FC; cGITR
Assay: SPR; KD on cGITR-Fc over KD on hGITR-Fc
Experimental: (§1) The binding kinetics of several anti-GITR antibodies to recombinant human GITR (hGITR) and cynomolgus monkey GITR (cGITR) were determined by surface plasmon resonance assay using a BIAcore 2000 (BIAcore Inc., […].). Briefly, a CM5 BIAcore biosensor chip was docked into the instrument and activated with 250 μL of 1:1 NHS/EDC at room temperature. A rabbit anti-mouse Fc IgG1 mAb (BIAcore #BR-1005-14) (13.5 μg/mL in 0.05M acetate buffer, pH 5) was immobilized on the activated chips in Flow cell 1. The immobilization was carried out at a flow rate of 5 μL/min. The chip was then blocked by injection of 55 μL of ethanolamine-HCl, pH 8.5, followed by five washes with 50 mM NaOH, 1M NaCl. To measure the binding of anti-GITR mabs to the human GITR protein or cyno GITR protein, antibodies were used at 2 μg/mL in BIAcore running buffer (HBS-EP). Antigens (human GITR or cyno GITR) were injected from 3 to 1000 nM. Following completion of the injection phase, dissociation was monitored in a BIAcore running buffer at the same flow rate for 360 sec. The surface was regenerated between injections using 30 μL of 50 mM NaOH-1 M NaCl. Individual sensorgrams were analyzed using […].

| Binder | Ratio cKD/hKD |
| --- | --- |
| B7 | 5.3 |
| B8 | 5.5 |
| B9 | 5.3 |
| B10 | 4.7 |

Target: T2, human GITR expressed on cells
Assay: FACS on HEK293-Trex-hGITR cells, Michaelis binding plot
Experimental: (§2) Wells were washed 3 times with 200 μl/well of PBS+1% BSA by centrifugation at 350 g for 5 minutes. Then, 100 μL of a 1:400 dilution of Alexa 647-conjugated, anti-human IgG-Fc (Invitrogen) was added to each well. Following incubation at 4° C. for 45 minutes in the dark, the plate was washed with PBS-1% BSA three times. Cells were resuspended in 150 μL of PBS-1% BSA and analyzed using GUAVA instrument.

| Binder | Kd [nM] |
| --- | --- |
| B1 | 4.52 |
| B2 | 5.55 |
| B3 | 4.68 |
| B4 | 5.51 |
| B5 | 4.96 |
| B6 | 4.03 |

Target: T3, human GITR-Fc fusion protein
Assay: SPR (BIAcore 2000), mAb captured on anti-mouse Fc, antigen injected
Experimental: as §1

| Binder | Kd [nM] | koff [s⁻¹] |
| --- | --- | --- |
| B7 | 5.95 | 0.000221 |
| B8 | 6.67 | 0.000224 |
| B9 | 1.84 | 7.44e-05 |
| B10 | 4.43 | 0.000177 |

Target: T4, cynomolgus monkey GITR-Fc
Assay: as above
Experimental: as §1

| Binder | Kd [nM] | koff [s⁻¹] |
| --- | --- | --- |
| B7 | 31.8 | 0.000662 |
| B8 | 36.8 | 0.000707 |
| B9 | 9.68 | 0.00021 |
| B10 | 20.9 | 0.000473 |

Target: T3, human GITR-Fc fusion protein
Assay: competition ELISA, GITRL coated, GITR 0.25 µg/mL pre-incubated with antibody
Experimental: Ninety-six well plates were coated with GITR-Ligand proteins at 0.5 μg/well at 4° C. overnight. Wells were washed with washing buffer (PBS pH 7.4+0.05 Tween 20) and blocked with 200 μL of blocking buffer (PBS pH 7.4+0.05% Tween 20+1% BSA) for 1 hour at room temperature. […] Plates were washed four times with washing buffer and GITR-Ligand-bound recombinant human GITR-Fc was detected with the use of peroxidase-conjugated goat, anti-human IgG-Fc (Sigma), followed by incubation with the TMB substrate (Interchim ref UP664780).

| Binder | IC50 [nM] |
| --- | --- |
| B1 | 1.21 |
| B2 | 1.13 |
| B3 | 0.93 |
| B4 | 1.26 |
| B5 | 1.15 |
| B6 | 1.08 |

Target: T2, human GITR expressed on cells
Assay: Meso Scale assay, Sulfo-conjugated antibody on coated HEK293-Trex-hGITR cells
Experimental: The binding kinetics of anti-GITR antibodies to hGITR expressed on the surface of HEK293 cells were determined by Meso Scale assay. HEK293-Trex-hGITR cells (#2404) were coated at 25000 cells/well on a 96-well High Bind plate (MSD L15XB-3) for 2 hours at room temperature. Wells were washed 2 times with 150 μl/well of PBS and blocked with 150 μl/well of blocking solution for 30 min at room temperature. Following two washes with 150 μl/well of PBS, 25 μL/well of Sulfo-conjugated antibodies were added in 2-fold serial dilutions starting at 100 μg/ml up to 12 dilutions in assay diluent and incubated for 45 min at room temperature followed by two washes with PBS. The antibody binding was evaluated by adding 150 μl/well 1× Read buffer T without surfactant and read using the Mesoscale instrument.

| Binder | Kd [nM] |
| --- | --- |
| B7 | 7.24 |
| B8 | 6.8 |
| B9 | 5.38 |
| B10 | 4.44 |

Target: T3, human GITR-Fc fusion protein
Assay: competition ELISA, GITRL coated, GITR-Fc 0.25 µg/mL pre-incubated with antibody
Experimental: The ability of anti-GITR antibodies to inhibit the binding of human GITRL to hGITR was assessed using a competition ELISA. Ninety-six well plates were coated with GITR-Ligand protein at 0.5 μg/well at 4° C., overnight. Wells were washed with washing buffer (PBS pH 7.4+0.05 Tween 20) and blocked with 200 μL of blocking buffer (PBS pH 7.4+0.05% Tween 20+1% BSA) for 1 hour at room temperature. Wells were then washed two times with washing buffer and exposed to 100 μL of pre-incubated mixtures of GITR-Fc at 0.25 μg/mL plus anti-GITR antibody in 2-fold serial dilutions starting at 10 μg/ml up to 12 dilutions for 1 hour at room temperature with agitation. Plates were washed four times with washing buffer and GITR-Ligand-bound recombinant human GITR-Fc was detected with the use of peroxidase-conjugated goat anti-human IgG-Fc (Sigma), followed by incubation with the TMB substrate (Interchim)
All antibodies generated using the methods disclosed herein were able to antagonize the binding of GITRL to GITR more potently than the prior art MAB689 antibody.

| Binder | IC50 [nM] |
| --- | --- |
| B7 | 2.82 |
| B8 | 1.9 |
| B9 | 3.76 |
| B10 | 2.5 |

Target: T2, human GITR expressed on cells
Assay: FACS (Guava) on HEK293-Trex-hGITR cells, Alexa 647 anti-human IgG-Fc detection; fitted half-maximal concentration in the legend box, unit from the x axis 'mAb concentrations (µg/mL)'
Experimental: as §2

| Binder | EC50 [µg/mL] |
| --- | --- |
| B1 | 0.259 |
| B2 | 0.337 |
| B3 | 0.278 |
| B4 | 0.333 |
| B5 | 0.238 |
| B6 | 0.206 |

— US20130108641A1 (Sanofi, published 2013)
